Source: IntAct's records for PubMed 26751641

B1: Chromodomain-helicase-DNA-binding protein 1 (Homo sapiens), O14646 (parent)
chain: MNGHSDEESVRNSSGESSQSDDDSGSASGSGSGSSSGSSSDGSSSQSGSSDSDSGSESGSQSESESDTSRENKVQAKPPKVDGAEFWKSSPSILAVQRSAILKKQQQQQQQQQHQASSNSGSEEDSSSSEDSDDSSSEVKRKKHKDEDWQMSGSGSPSQSGSDSESEEEREKSSCDETESDYEPKNKVKSRKPQNRSKSKNGKKILGQKKRQIDSSEEDDDEEDYDNDKRSSRRQATVNVSYKEDEEMKTDSDDLLEVCGEDVPQPEEEEFETIERFMDCRIGRKGATGATTTIYAVEADGDPNAGFEKNKEPGEIQYLIKWKGWSHIHNTWETEETLKQQNVRGMKKLDNYKKKDQETKRWLKNASPEDVEYYNCQQELTDDLHKQYQIVERIIAHSNQKSAAGYPDYYCKWQGLPYSECSWEDGALISKKFQACIDEYFSRNQSKTTPFKDCKVLKQRPRFVALKKQPSYIGGHEGLELRDYQLNGLNWLAHSWCKGNSCILADEMGLGKTIQTISFLNYLFHEHQLYGPFLLVVPLSTLTSWQREIQTWASQMNAVVYLGDINSRNMIRTHEWTHHQTKRLKFNILLTTYEILLKDKAFLGGLNWAFIGVDEAHRLKNDDSLLYKTLIDFKSNHRLLITGTPLQNSLKELWSLLHFIMPEKFSSWEDFEEEHGKGREYGYASLHKELEPFLLRRVKKDVEKSLPAKVEQILRMEMSALQKQYYKWILTRNYKALSKGSKGSTSGFLNIMMELKKCCNHCYLIKPPDNNEFYNKQEALQHLIRSSGKLILLDKLLIRLRERGNRVLIFSQMVRMLDILAEYLKYRQFPFQRLDGSIKGELRKQALDHFNAEGSEDFCFLLSTRAGGLGINLASADTVVIFDSDWNPQNDLQAQARAHRIGQKKQVNIYRLVTKGSVEEDILERAKKKMVLDHLVIQRMDTTGKTVLHTGSAPSSSTPFNKEELSAILKFGAEELFKEPEGEEQEPQEMDIDEILKRAETHENEPGPLTVGDELLSQFKVANFSNMDEDDIELEPERNSKNWEEIIPEDQRRRLEEEERQKELEEIYMLPRMRNCAKQISFNGSEGRRSRSRRYSGSDSDSISEGKRPKKRGRPRTIPRENIKGFSDAEIRRFIKSYKKFGGPLERLDAIARDAELVDKSETDLRRLGELVHNGCIKALKDSSSGTERTGGRLGKVKGPTFRISGVQVNAKLVISHEEELIPLHKSIPSDPEERKQYTIPCHTKAAHFDIDWGKEDDSNLLIGIYEYGYGSWEMIKMDPDLSLTHKILPDDPDKKPQAKQLQTRADYLIKLLSRDLAKKEALSGAGSSKRRKARAKKNKAMKSIKVKEEIKSDSSPLPSEKSDEDDDKLSESKSDGRERSKKSSVSDAPVHITASGEPVPISEESEELDQKTFSICKERMRPVKAALKQLDRPEKGLSEREQLEHTRQCLIKIGDHITECLKEYTNPEQIKQWRKNLWIFVSKFTEFDARKLHKLYKHAIKKRQESQQNSDQNSNLNPHVIRNPDVERLKENTNHDDSSRDSYSSDRHLTQYHDHHKDRHQGDSYKKSDSRKRPYSSFSNGKDHRDWDHYKQDSRYYSDREKHRKLDDHRSRDHRSNLEGSLKDRSHSDHRSHSDHRLHSDHRSSSEYTHHKSSRDYRYHSDWQMDHRASSSGPRSPLDQRSPYGSRSPFEHSVEHKSTPEHTWSSRKT

Variants of: B1
Details: with KDM1A

Row | Variant | effect of a mutation on the interaction
1 | D425A | disrupting interaction strength
